# Data taken from the RNAGym collection of RNA variant scans (doi:10.7554/elife.90254).
# B1: LINE1-mini (parent)
# chain: GGCAGAGCUCAACACAGCGUGGCAAAGUGGCUGUGGCUAGACUGCC
# Variants of: B1
# Test: self-cleavage, relative activity (ratio to wild type); higher = more cleavage; in vitro, sequencing; the parent is a self-cleaving ribozyme
row,Variant,self-cleavage
1,U9A C15G,0.25
2,U9A C15A,0.13
3,U9A C15U,0.17
4,C8U G44U,0.35
5,C8U G44A,0.39
6,C8U G44C,0.08
7,U9C A41U,0.06
8,U9C A41C,0.04
9,U9C A41G,0.05
10,C8U C23U,0.25
11,C8U C23A,0.21
12,C8U C23G,0.29
13,U9A A26U,0.21
14,U9A A26C,0.23
15,U9A A26G,0.09
16,U9C A39U,0.05
17,U9C A39G,0.02
18,U9C A39C,0.02
19,C8U U32C,0.12
20,C8U U32G,0.1
21,C8U U32A,0.1
22,U9C G22C,0.03
23,U9C G22U,0.02
24,U9C G22A,0.04

row,Variant,self-cleavage
1,C8U C10U,0.08
2,C8U C10A,0.03
3,C8U C10G,0.02
4,U9A C13A,0.2
5,U9A C13G,0.23
6,U9A C13U,0.29
7,C8U A14G,0.19
8,C8U A14U,0.09
9,C8U A14C,0.15
10,C8U G17C,0.16
11,C8U G17U,0.14
12,C8U G17A,0.15
13,C8U A26G,0.29
14,C8U A26U,0.36
15,C8U A26C,0.21
16,U9C G29A,0.02
17,U9C G29C,0.02
18,U9C G29U,0.03
19,U9C G36U,0.03
20,U9C G36C,0.03
21,U9C G36A,0.09
22,U9A G33A,0.11
23,U9A G33C,0.07
24,U9A G33U,0.07

row,Variant,self-cleavage
1,U9A A25U,0.15
2,U9A A25C,0.07
3,U9A A25G,0.17
4,U9A U32G,0.19
5,U9A U32C,0.13
6,U9A U32A,0.11
7,U9C C45A,0.05
8,U9C C45G,0.02
9,U9C C45U,0.03
10,U9C G33U,0.03
11,U9C G33C,0.03
12,U9C G33A,0.06
13,C8U G33C,0.07
14,C8U G33U,0.16
15,C8U G33A,0.15
16,U9C C37A,0.02
17,U9C C37U,0.04
18,U9C C37G,0.01
19,U9A U43C,0.14
20,U9A U43A,0.2
21,U9A U43G,0.28
22,U9C U28A,0.03
23,U9C U28C,0.05
24,U9C U28G,0.04

row,Variant,self-cleavage
1,C8U C31A,0.21
2,C8U C31G,0.17
3,C8U C31U,0.14
4,U9C C46U,0.03
5,U9C C46A,0.03
6,U9C C46G,0.03
7,C8U C46U,0.56
8,C8U C46A,0.33
9,C8U C46G,0.2
10,U9C C10G,0.03
11,U9C C10U,0.04
12,U9C C10A,0.03
13,C8U C18A,0.18
14,C8U C18U,0.14
15,C8U C18G,0.23
16,U9C G35U,0.03
17,U9C G35C,0.04
18,U9C G35A,0.06
19,U9C U32C,0.04
20,U9C U32G,0.03
21,U9C U32A,0.02
22,U9A C18A,0.1
23,U9A C18U,0.11
24,U9A C18G,0.09

row,Variant,self-cleavage
1,U9C C31U,0.03
2,U9C C31A,0.02
3,U9C C31G,0.02
4,U9C A11U,0.03
5,U9C A11G,0.02
6,U9C A11C,0.02
7,C8U C15A,0.11
8,C8U C15G,0.09
9,C8U C15U,0.25
10,U9A G35U,0.09
11,U9A G35A,0.15
12,U9A G35C,0.08
13,U9C G19A,0.04
14,U9C G19U,0.08
15,U9C G19C,0.05
16,C8U G30A,0.24
17,C8U G30U,0.29
18,C8U G30C,0.26
19,C8U U43A,0.08
20,C8U U43C,0.16
21,C8U U43G,0.12
22,C8U G29C,0.1
23,C8U G29A,0.21
24,C8U G29U,0.46

row,Variant,self-cleavage
1,U9C A26C,0.03
2,U9C A26G,0.05
3,U9C A26U,0.11
4,U9C G40C,0.03
5,U9C G40U,0.03
6,U9C G40A,0.03
7,U9A C37A,0.21
8,U9A C37G,0.11
9,U9A C37U,0.12
10,U9A G36A,0.34
11,U9A G36C,0.06
12,U9A G36U,0.1
13,U9A G22U,0.11
14,U9A G22C,0.09
15,U9A G22A,0.14
16,U9A G44A,0.31
17,U9A G44C,0.07
18,U9A G44U,0.09
19,U9A G17A,0.07
20,U9A G17C,0.06
21,U9A G17U,0.13
22,U9C G17A,0.02
23,U9C G17U,0.04
24,U9C G17C,0.04

row,Variant,self-cleavage
1,U9C C15G,0.04
2,U9C C15U,0.04
3,U9C C15A,0.03
4,U9C G27A,0.03
5,U9C G27U,0.04
6,U9C G27C,0.03
7,U9A G21C,0.06
8,U9A G21A,0.3
9,U9A G21U,0.15
10,U9C A12C,0.04
11,U9C A12G,0.04
12,U9C A12U,0.03
13,C8U U28A,0.19
14,C8U U28C,0.2
15,C8U U28G,0.13
16,U9A U38G,0.22
17,U9A U38A,0.08
18,U9A U38C,0.12
19,U9A A41G,0.05
20,U9A A41U,0.28
21,U9A A41C,0.08
22,U9A G19A,0.15
23,U9A G19C,0.06
24,U9A G19U,0.08

row,Variant,self-cleavage
1,U9C G44C,0.02
2,U9C G44U,0.02
3,U9C G44A,0.04
4,U9A G30U,0.08
5,U9A G30C,0.1
6,U9A G30A,0.18
7,U9A U28C,0.1
8,U9A U28G,0.15
9,U9A U28A,0.17
10,U9C U34C,0.04
11,U9C U34G,0.03
12,U9C U34A,0.04
13,U9C G30A,0.03
14,U9C G30U,0.02
15,U9C G30C,0.04
16,U9A C10U,0.08
17,U9A C10A,0.04
18,U9A C10G,0.04
19,U9C C42G,0.03
20,U9C C42A,0.03
21,U9C C42U,0.04
22,C8U C42A,0.11
23,C8U C42U,0.17
24,C8U C42G,0.13

row,Variant,self-cleavage
1,U9A A16C,0.08
2,U9A A16U,0.06
3,U9A A16G,0.11
4,C8U G19A,0.35
5,C8U G19U,0.24
6,C8U G19C,0.17
7,U9C U43G,0.01
8,U9C U43A,0.03
9,U9C U43C,0.02
10,C8U A25C,0.21
11,C8U A25U,0.18
12,C8U A25G,0.13
13,C8U U20A,0.21
14,C8U U20C,0.09
15,C8U U20G,0.12
16,C8U G35U,0.42
17,C8U G35C,0.09
18,C8U G35A,0.32
19,C8U A39C,0.2
20,C8U A39G,0.05
21,C8U A39U,0.09
22,U9C A16G,0.03
23,U9C A16U,0.04
24,U9C A16C,0.02

row,Variant,self-cleavage
1,U9C C18U,0.01
2,U9C C18G,0.03
3,U9C C18A,0.03
4,C8U G21A,0.39
5,C8U G21C,0.25
6,C8U G21U,0.25
7,C8U C45U,0.32
8,C8U C45A,0.21
9,C8U C45G,0.46
10,U9C A25G,0.04
11,U9C A25C,0.03
12,U9C A25U,0.04
13,U9C A14C,0.02
14,U9C A14U,0.07
15,U9C A14G,0.03
16,C8U C13A,0.5
17,C8U C13G,0.29
18,C8U C13U,0.81
19,C8U U9A,0.32
20,C8U U9G,0.09
21,C8U U9C,0.06
22,U9C U20A,0.04
23,U9C U20C,0.02
24,U9C U20G,0.03

row,Variant,self-cleavage
1,U9C A24G,0.07
2,U9C A24U,0.05
3,U9C A24C,0.02
4,U9A A12G,0.05
5,U9A A12C,0.03
6,U9A A12U,0.13
7,C8U G36U,0.2
8,C8U G36A,0.77
9,C8U G36C,0.27
10,C8U C37U,0.2
11,C8U C37G,0.07
12,C8U C37A,0.14
13,C8U G22A,0.15
14,C8U G22U,0.16
15,C8U G22C,0.15
16,U9A A14U,0.11
17,U9A A14C,0.04
18,U9A A14G,0.17
19,C8U U38A,0.27
20,C8U U38C,0.22
21,C8U U38G,0.04
22,C8U A24G,0.14
23,C8U A24C,0.24
24,C8U A24U,0.33

row,Variant,self-cleavage
1,U9A A39C,0.17
2,U9A A39U,0.1
3,U9A A39G,0.21
4,U9C,0.04
5,U9A,0.17
6,U9G,0.15
7,U9C U38C,0.07
8,U9C U38A,0.03
9,U9C U38G,0.04
10,C8U A41C,0.16
11,C8U A41U,0.47
12,C8U A41G,0.2
13,U9C C13G,0.04
14,U9C C13A,0.05
15,U9C C13U,0.03
16,U9A C46G,0.12
17,U9A C46A,0.17
18,U9A C46U,0.17
19,U9A G29U,0.15
20,U9A G29A,0.2
21,U9A G29C,0.05
22,C8U A16U,0.13
23,C8U A16C,0.13
24,C8U A16G,0.16

row,Variant,self-cleavage
1,U9A G40C,0.08
2,U9A G40U,0.1
3,U9A G40A,0.19
4,U9A C23G,0.16
5,U9A C23U,0.21
6,U9A C23A,0.14
7,C8U U34A,0.1
8,C8U U34C,0.18
9,C8U U34G,0.22
10,U9A A11G,0.03
11,U9A A11C,0.02
12,U9A A11U,0.03
13,U9A C31U,0.04
14,U9A C31G,0.07
15,U9A C31A,0.07
16,U9G A11C,0.02
17,U9A U34A,0.21
18,U9A U34G,0.08
19,U9A U34C,0.18
20,C8U G27U,0.14
21,C8U G27A,0.14
22,C8U G27C,0.11
23,U9A U20G,0.16
24,U9A U20A,0.16

row,Variant,self-cleavage
1,U9A U20C,0.12
2,U9A C45G,0.32
3,U9A C45A,0.31
4,U9A C45U,0.28
5,U9C C23A,0.02
6,U9C C23G,0.03
7,U9C C23U,0.02
8,U9C G21U,0.04
9,U9C G21C,0.06
10,U9C G21A,0.04
11,U9A C42G,0.13
12,U9A C42U,0.15
13,U9A C42A,0.06
14,U9A G27U,0.14
15,U9A G27C,0.11
16,U9A G27A,0.1
17,C8U G40A,0.41
18,C8U G40U,0.29
19,C8U G40C,0.13
20,U9A A24G,0.2
21,U9A A24U,0.33
22,U9A A24C,0.56
